Earlier results as cited in paper PMC10793677.

What was measured:
CD73 (Homo sapiens) = CD73 (Homo sapiens) (UniProt P21589); experiment: flow cytometry and SPR
CD73 (Mus musculus) = CD73 (Mus musculus) (UniProt Q61503); experiment: flow cytometry and SPR
UniProt Q61503, sequence (Q61503 29-551): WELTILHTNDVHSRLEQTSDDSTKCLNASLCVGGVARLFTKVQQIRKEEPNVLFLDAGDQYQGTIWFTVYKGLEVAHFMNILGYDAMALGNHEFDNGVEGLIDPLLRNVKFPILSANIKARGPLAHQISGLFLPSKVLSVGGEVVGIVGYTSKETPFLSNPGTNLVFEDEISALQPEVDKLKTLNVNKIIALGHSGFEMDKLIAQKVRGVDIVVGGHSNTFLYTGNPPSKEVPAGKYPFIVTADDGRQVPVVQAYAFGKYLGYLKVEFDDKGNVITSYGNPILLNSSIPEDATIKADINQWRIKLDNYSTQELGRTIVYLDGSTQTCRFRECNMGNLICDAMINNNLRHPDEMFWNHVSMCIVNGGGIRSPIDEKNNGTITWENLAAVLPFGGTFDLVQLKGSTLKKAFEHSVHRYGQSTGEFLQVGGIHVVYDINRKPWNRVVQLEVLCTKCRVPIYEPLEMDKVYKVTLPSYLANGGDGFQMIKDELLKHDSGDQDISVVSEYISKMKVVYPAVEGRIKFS

UniProt P21589, sequence (P21589 27-549): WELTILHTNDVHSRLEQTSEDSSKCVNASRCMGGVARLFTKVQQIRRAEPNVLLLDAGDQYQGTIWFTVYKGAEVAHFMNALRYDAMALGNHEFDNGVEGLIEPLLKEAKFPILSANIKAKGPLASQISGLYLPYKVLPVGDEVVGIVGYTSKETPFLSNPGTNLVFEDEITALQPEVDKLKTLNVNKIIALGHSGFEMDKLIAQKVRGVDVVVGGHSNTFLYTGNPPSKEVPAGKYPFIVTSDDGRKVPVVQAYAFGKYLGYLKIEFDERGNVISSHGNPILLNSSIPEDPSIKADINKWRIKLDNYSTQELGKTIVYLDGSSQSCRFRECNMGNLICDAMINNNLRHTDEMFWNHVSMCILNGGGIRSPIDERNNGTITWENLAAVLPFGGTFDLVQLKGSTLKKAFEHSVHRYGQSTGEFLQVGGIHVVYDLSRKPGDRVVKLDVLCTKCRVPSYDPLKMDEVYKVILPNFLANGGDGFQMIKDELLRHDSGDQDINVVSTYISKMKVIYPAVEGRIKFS

For Oleclumab, the Kd (CD73 (Homo sapiens)) is listed as 0.154 nM and the Kd (CD73 (Mus musculus)) is listed as 0.113 nM.
